The source of these data is article PMC11403483.

The target in assay [1] is recombinant PSG1 (pregnancy-specific glycoprotein 1) (human) (UniProt P11464). The experiment in a line: SPR. (In general: In SPR one partner is held on a chip, and binding of the other changes the refractive index at the surface.)
Assay [2] deals with recombinant murine Psg23-myc-His (mouse). In words: BLI. In general terms: In BLI a coated tip is dipped into the sample, and binding shifts an interference pattern.

Sequence of recombinant mouse galectin 9 (O08573 whole entry): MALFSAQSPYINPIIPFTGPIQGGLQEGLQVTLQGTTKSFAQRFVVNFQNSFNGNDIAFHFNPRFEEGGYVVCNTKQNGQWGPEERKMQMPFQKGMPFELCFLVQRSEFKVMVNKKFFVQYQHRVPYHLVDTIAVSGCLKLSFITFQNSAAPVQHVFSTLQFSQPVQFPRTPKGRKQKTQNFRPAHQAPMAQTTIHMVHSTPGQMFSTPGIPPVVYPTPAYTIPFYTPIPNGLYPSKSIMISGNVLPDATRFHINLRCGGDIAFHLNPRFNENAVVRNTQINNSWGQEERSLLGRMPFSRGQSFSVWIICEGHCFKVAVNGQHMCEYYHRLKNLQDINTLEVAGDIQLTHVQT
Sequence of recombinant PSG1 (pregnancy-specific glycoprotein 1) (human) (P11464 35-419): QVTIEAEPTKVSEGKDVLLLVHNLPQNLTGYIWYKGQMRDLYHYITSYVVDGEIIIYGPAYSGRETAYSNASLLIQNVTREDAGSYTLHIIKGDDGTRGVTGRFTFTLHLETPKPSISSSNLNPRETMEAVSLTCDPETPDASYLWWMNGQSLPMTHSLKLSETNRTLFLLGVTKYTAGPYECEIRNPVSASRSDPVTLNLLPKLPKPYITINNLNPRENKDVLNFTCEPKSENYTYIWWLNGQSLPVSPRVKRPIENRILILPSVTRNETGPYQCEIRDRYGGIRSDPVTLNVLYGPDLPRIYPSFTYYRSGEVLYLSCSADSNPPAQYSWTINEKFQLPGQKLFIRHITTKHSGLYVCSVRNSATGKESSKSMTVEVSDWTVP

As a reminder, the Kd is a measure of binding affinity in units of concentration. For orientation: koff means the rate constant with which the complex falls apart. Take “GAL-9 C-terminal carbohydrate recognition domain (domain or fragment)”: in assay [1], the Kd was 1.7 µM and the off-rate (koff) is 0.00415 s⁻¹.

“GAL-9 N-terminal carbohydrate recognition domain (domain or fragment)”: in assay [1], the dissociation constant (Kd) turned out to be 5780 µM and the off-rate constant (koff) amounted to 0.0106 s⁻¹.

Broadly, the kon is the second-order rate constant of association. Take “recombinant mouse galectin 9 (from UniProt O08573 1-353) (natural protein)”: in assay [2], the equilibrium dissociation constant (Kd) is 0.00228 µM, the koff came to 0.00635 s⁻¹ and the on-rate (kon) was 2.79e+06 M⁻¹ s⁻¹.
